Measurements reported in US9526786B2, “Thermostabilization of proteins” (The Trustee of Columbia University in the City of New York, priority 2007, dated 2016).

Columns and labels:
[1] = molecular target: T1, CocE (Rhodococcus sp., UniProt Q9L9D7); assay type: biochemical, Rhodococcus sp. MB 1; settings: cocaine: 62.5 and 125 μM; benzoic acid: higher concentrations
T1 construct: 6xHis (C); made in house; host or cells: E. coli BL-21 Gold (DE3), pET-22b(+)
T1 sequence (Q9L9D7 1-574): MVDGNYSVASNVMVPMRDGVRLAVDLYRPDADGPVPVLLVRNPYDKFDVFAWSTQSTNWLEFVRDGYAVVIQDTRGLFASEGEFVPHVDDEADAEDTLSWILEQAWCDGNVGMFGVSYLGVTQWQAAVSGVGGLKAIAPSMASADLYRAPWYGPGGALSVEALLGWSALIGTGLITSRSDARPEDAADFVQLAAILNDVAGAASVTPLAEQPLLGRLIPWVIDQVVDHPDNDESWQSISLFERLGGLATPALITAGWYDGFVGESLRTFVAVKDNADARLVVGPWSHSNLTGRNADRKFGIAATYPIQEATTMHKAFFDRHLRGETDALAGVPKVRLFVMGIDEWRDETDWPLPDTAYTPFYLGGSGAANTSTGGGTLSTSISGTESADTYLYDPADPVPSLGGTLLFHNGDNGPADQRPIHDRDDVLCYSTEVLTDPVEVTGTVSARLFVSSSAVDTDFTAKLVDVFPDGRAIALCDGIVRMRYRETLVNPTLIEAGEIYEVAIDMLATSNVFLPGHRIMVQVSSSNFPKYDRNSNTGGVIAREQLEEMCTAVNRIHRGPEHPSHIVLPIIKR
Description: CocE is also able to cleave another substrate, 4-nitrophenyl acetate (FIG. 3). Cleavage is monitored by detection of the appearance of the 4-nitrophenol reaction product, which absorbs at 400 nm.
Further spectrophotometric analysis of cocaine stabilization was performed, by analyzing the ability of CocE to cleave 4-nitrophenyl acetate, after preincubation at 37° C. for various times, in the presence of various concentrations of cocaine. […] However, preincubation of CocE at the higher concentrations for various times at 37° C. indicated the enzyme was stabilized enough to be able to cleave the 4-nitrophenyl substrate (FIG. 5).

[2] = molecular target: T1, CocE; assay type: biochemical, Rhodococcus sp. MB 1; settings: for stabilization of CocE at 37° C., lower concentrations: cocaine lower than 62.5 μM, others below 125 μM
Description: Further spectrophotometric analysis of cocaine stabilization was performed, by analyzing the ability of CocE to cleave 4-nitrophenyl acetate, after preincubation at 37° C. for various times, in the presence of various concentrations of cocaine.

[3] = molecular target: T2, CocE WT (Rhodococcus sp., UniProt Q9L9D7); experiment: Inhibition of CocE WT aggregate formation, non-denaturing gel, 1 hour at 37° C.; set-up: species or system Rhodococcus sp. MB 1
T2 construct: 6xHis (C); made in house; host or cells: E. coli BL-21 Gold (DE3), pET-22b(+)
T2 sequence (Q9L9D7 1-574): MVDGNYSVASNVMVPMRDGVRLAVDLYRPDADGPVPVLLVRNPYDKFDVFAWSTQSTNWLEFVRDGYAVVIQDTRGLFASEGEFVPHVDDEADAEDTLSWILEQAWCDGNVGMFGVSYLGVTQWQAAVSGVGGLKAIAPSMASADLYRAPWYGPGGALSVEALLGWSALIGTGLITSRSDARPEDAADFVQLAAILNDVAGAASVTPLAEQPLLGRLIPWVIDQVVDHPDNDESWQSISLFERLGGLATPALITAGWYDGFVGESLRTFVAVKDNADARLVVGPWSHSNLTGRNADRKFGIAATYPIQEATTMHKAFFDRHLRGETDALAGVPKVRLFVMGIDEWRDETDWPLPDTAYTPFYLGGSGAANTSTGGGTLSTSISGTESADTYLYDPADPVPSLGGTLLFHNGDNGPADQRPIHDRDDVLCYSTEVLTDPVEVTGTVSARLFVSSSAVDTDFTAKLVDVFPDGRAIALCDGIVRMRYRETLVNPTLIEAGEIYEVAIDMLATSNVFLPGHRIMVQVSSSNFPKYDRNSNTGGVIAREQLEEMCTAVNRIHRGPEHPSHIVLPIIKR
Description: To further study CocE stabilization with small molecules, other inhibitors of the CocE cleavage reaction were considered.

[4] = Description: Analysis of CocE action on cocaine cleavage is performed by utilizing the spectroscopic properties of cocaine, which maximally absorbs light at a 240 nm wavelength. CocE activity is measured by monitoring for a decrease in signal at A240, using various concentrations of cocaine, and determining the initial rate of the decrease. From these values the Vmax of the enzyme can be determined. By pre-incubating the enzyme at 37° C. for various times before monitoring for activity, the half life of CocE at 37° C. can be calculated.
The initial rates (of decay) were determined by following the change in the intrinsic absorbance of cocaine at 240 nm (6700 M^1 cm^1)(Xie et al., 1999) using a SpectraMax Plus 384 UV plate reader (Molecular Devices, Sunnyvale, Calif.) using SOFTmax Pro software (Version 3.1.2). The reaction was initiated by adding 100 μL of a 2× enzyme solution (100 mM phosphate buffer, pH 7.4 and 300 mM NaCl) to 100 μL of a 2× cocaine solution (50 μg/mL enzyme, 100 mM Phosphate Buffer, pH 7.4 and 300 mM NaCl). All assays were performed with 100 μM DTT unless indicated otherwise. […] For stability measurements, wild type and mutant enzymes were diluted to 2× concentration and incubated at 37° C. for the times indicated. At the end of each time point, an aliquot was removed and kinetic behavior was observed as outlined above.
(§1) In vitro kinetic assays. […] Initial rates were then used to determine Michaelis-Menten parameters. To assess thermal stability, enzyme preparations were preincubated at 37° C. for various lengths of time, prior to measurement of residual activities (Table 1 and FIG. 23).

[5] = Michaelis-Menten kinetics of cocaine hydrolysis (absorbance at 240 nm); assay type: biochemical; settings: cocaine
Description: The initial rates (of decay) were determined by following the change in the intrinsic absorbance of cocaine at 240 nm (6700 M^1 cm^1)(Xie et al., 1999) using a SpectraMax Plus 384 UV plate reader (Molecular Devices, Sunnyvale, Calif.) using SOFTmax Pro software (Version 3.1.2). The reaction was initiated by adding 100 μL of a 2× enzyme solution (100 mM phosphate buffer, pH 7.4 and 300 mM NaCl) to 100 μL of a 2× cocaine solution (50 μg/mL enzyme, 100 mM Phosphate Buffer, pH 7.4 and 300 mM NaCl). All assays were performed with 100 μM DTT unless indicated otherwise. Final cocaine concentrations were as follows: 125, 62.5, 31.25, 15.63, 7.81, 3.91, 1.95, and 0.977 μM. Vmax and Km values were calculated using Prism (GraphPad Software, San Diego). For stability measurements, wild type and mutant enzymes were diluted to 2× concentration and incubated at 37° C. for the times indicated. At the end of each time point, an aliquot was removed and kinetic behavior was observed as outlined above.
as §1
Determination of Catalytic Efficiency. To determine the catalytic activity a spectrophometric assay was performed. Samples of L169K/G173Q CocE were added to a 96-well UV permeable plate containing increasing cocaine concentrations (0.5, 2.5, 5, 12.5, 25, 50, 100, and 150 μM) to give a final concentration of 10 ng/ml CocE in a final volume of 200 μl. The change in absorbance at 240 nm was measured over 20 minutes, with readings every 10 seconds, by a SpectraMax Plus 384 UV plate reader (Molecular Devices, Sunnyvale, Calif.) using SOFTmax Pro software (Version 3.1.2). The change in absorbance was converted to the change in concentration and furthermore the rate of decay per mole enzyme is determined (Kcat). Kcat and Km of the enzyme are determined using Prism (GraphPad software, San Diego).

[6] = Circular dichroism melting temperature of CocE proteins alone; assay type: physicochemical; settings: for melting temperature: circular dichroism, enzyme alone
Description: Further characterization of the stability of wild type (WT) CocE and thermostable mutants was performed through circular dichroism, which detects small changes in protein conformation and structure. Analysis by repeated CD measurements at increasing temperatures allows analysis of the thermodynamics and melting temperature (TM) of the protein, so long as the melting is reversible (i.e. the protein resumes it's original conformation upon cooling). […] However CD is still of value in determining the temperature to unfolding.

[7] = test system: cocaine-induced lethality; experiment: In vivo potency of protection against cocaine-induced lethality; set-up: species or system NIH-Swiss mice; settings: for protection against cocaine-induced lethality: i.v. pretreatment 1 min prior to i.p. cocaine
[8] = test system: cocaine-induced lethality; experiment: In vivo duration of protection against cocaine-induced lethality; set-up: species or system NIH-Swiss mice; settings: 1 mg i.v.; cocaine 180 mg/kg i.p.
Description: In vivo protection against cocaine lethality. Male NIH-Swiss mice (25-32 g) were obtained from Harlan Inc. (Indianapolis, Ind.) and were housed in groups of 6 mice per cage. All mice were allowed ad libitum access to food and water, and were maintained on a 12-h light-dark cycle with lights on at 06.30 AM in a room kept at a temperature of 21-22° C. Experiments were performed in accordance with the Guide for the Care and Use of Laboratory Animals as adopted and promulgated by the National Institutes of Health. The experimental protocols were approved by the University Committee on the Use and Care of Animals at the University of Michigan.
Cocaine-induced toxicity was characterized by the occurrence of lethality, as defined by the cessation of observed movement and respiration. Mice were placed individually in Plexiglas observation chambers (16×28×20 cm high) to be habituated for 15 min before drug administration. Following intra-peritoneal (i.p.) cocaine administration, the mouse was immediately placed individually in the same chamber for observation. The presence or absence of lethality was recorded for 60 min following cocaine administration. The mouse was placed in a small restraint chamber (Outer tube diameter: 30 mm; Inner tube diameter: 24 mm) that left the tail exposed. The tail was cleansed with an alcohol wipe and a 30G1/2 precision glide needle (Fisher Scientific, Pittsburgh, Pa.) was inserted into one of the side veins for infusion. The i.v. injection volume of CocE or CocE mutant was 0.2 mL per mouse. Sterile gauze and pressure were applied to the injection site to staunch the bleeding.
Lethality was monitored following injection at 1, 5, 10, or 30 min, or 1, 2, 3, 4, 5 hours after enzyme administration. Each treatment used 8 mice to assess the percent of lethality (i.e., protection) in mice pretreated with a single dose of an esterase at a single time point.
These values were used to compare the degree of rightward shifts of cocaine's dose-response curve in the absence or presence of the enzyme pretreatment. In the time course study, a time point for duration of protection (i.e., 50% of lethality) was estimated by using each time course curve crossing 50% occurrence of lethality.
Evaluation of in vivo half life. CocE is administered IV to the tail vein in a volume of 0.2 ml. Animals are challenged with 180 mg/kg cocaine delivered intraperitoneally at a given time after CocE administration.

| Molecule | stabilization of CocE at 37° C., lower concentrations [2] | inhibition of formation of CocE protein aggregates [3] | Stability @ 37 (t1/2) [4] | half-life / τinact of activity at 37° C. [4] | t1/2 [4] | Kcat(mol · s^−1 · mol^−1) [5] | melting temperature [6] | protection against cocaine-induced lethality [7] | LT50, pretreatment time to 50% lethality [8] | also measured |
| --- | --- | --- | --- | --- | --- | --- | --- | --- | --- | --- |
| O=C(O)c1ccccc1 [benzoic acid] | did not reveal any stabilization | inhibited the formation of aggregates |  |  |  |  |  |  |  | inhibition of 4-nitrophenyl acetate cleavage [1]: inhibit; stabilization of CocE at 37° C., higher concentrations ([2]; cocaine 62.5 and 125 μM, benzoic acid above 125 μM): stabilize |
| COC(=O)[C@@H]1[C@H]2CC[C@@H](C[C@@H]1O)N2C [ecgonine methyl ester] | did not reveal any stabilization | could not |  |  |  |  |  |  |  |  |
| CC(=O)[O-].[Na+] [sodium acetate] | did not reveal any stabilization | could not |  |  |  |  |  |  |  |  |
| T172R: CocE mutant (protein, listed as Rhodococcus sp.) MVDGNYSVASNVMVPMRDGVRLAVDLYRPDADGPVPVLLVRNPYDKFDVFAWSTQSTNWLEFVRDGYAVVIQDTRGLFASEGEFVPHVDDEADAEDTLSWILEQAWCDGNVGMFGVSYLGVTQWQAAVSGVGGLKAIAPSMASADLYRAPWYGPGGALSVEALLGWSALIGRGLITSRSDARPEDAADFVQLAAILNDVAGAASVTPLAEQPLLGRLIPWVIDQVVDHPDNDESWQSISLFERLGGLATPALITAGWYDGFVGESLRTFVAVKDNADARLVVGPWSHSNLTGRNADRKFGIAATYPIQEATTMHKAFFDRHLRGETDALAGVPKVRLFVMGIDEWRDETDWPLPDTAYTPFYLGGSGAANTSTGGGTLSTSISGTESADTYLYDPADPVPSLGGTLLFHNGDNGPADQRPIHDRDDVLCYSTEVLTDPVEVTGTVSARLFVSSSAVDTDFTAKLVDVFPDGRAIALCDGIVRMRYRETLVNPTLIEAGEIYEVAIDMLATSNVFLPGHRIMVQVSSSNFPKYDRNSNTGGVIAREQLEEMCTAVNRIHRGPEHPSHIVLPIIKR |  |  | ~0.767 h | 0.767 h | 0.78 h | 2502 mol · s^−1 · mol^−1 | ~42 °C | protected | ~1.8 h | melting temperature higher than the WT [6]: 2-3 degrees |
| L169K: CocE mutant (protein, listed as Rhodococcus sp.) MVDGNYSVASNVMVPMRDGVRLAVDLYRPDADGPVPVLLVRNPYDKFDVFAWSTQSTNWLEFVRDGYAVVIQDTRGLFASEGEFVPHVDDEADAEDTLSWILEQAWCDGNVGMFGVSYLGVTQWQAAVSGVGGLKAIAPSMASADLYRAPWYGPGGALSVEALLGWSAKIGTGLITSRSDARPEDAADFVQLAAILNDVAGAASVTPLAEQPLLGRLIPWVIDQVVDHPDNDESWQSISLFERLGGLATPALITAGWYDGFVGESLRTFVAVKDNADARLVVGPWSHSNLTGRNADRKFGIAATYPIQEATTMHKAFFDRHLRGETDALAGVPKVRLFVMGIDEWRDETDWPLPDTAYTPFYLGGSGAANTSTGGGTLSTSISGTESADTYLYDPADPVPSLGGTLLFHNGDNGPADQRPIHDRDDVLCYSTEVLTDPVEVTGTVSARLFVSSSAVDTDFTAKLVDVFPDGRAIALCDGIVRMRYRETLVNPTLIEAGEIYEVAIDMLATSNVFLPGHRIMVQVSSSNFPKYDRNSNTGGVIAREQLEEMCTAVNRIHRGPEHPSHIVLPIIKR |  |  | ~4.57 h | 4.57 h | 4.57 h | 3104 mol · s^−1 · mol^−1 | ~65 °C | protected | ~3.3 h | plateau of catalytic activity, percent of maximal ([4]; 37° C., after greater than 8 hr / t=10 hours): approximately 35%; increase in Km [5]: ~5 fold; rightward shift in the cocaine dose-response curve ([7]; enzyme 1 mg (30 mg/kg) i.v.): 6-7 fold |
